This is an account of results in the RNAGym collection of RNA variant scans (doi:10.1093/molbev/msab373).

First the molecules themselves.
B1: Azoarcus group I ribozyme (parent)
chain: GUGCCUUGCGCCGGGAAACCACGCAAGGGAUGGUGUCAAAUUCGGCGAAACCUAAGCGCCCGCCCGGGCGUAUGGCAACGCCGAGCCAAGCUUCGGCGCCUGCGCCGAUGAAGGUGUAGAGACUAGACGGCACCCACCUAAGGCAAACGCUAUGGUGAAGGCAUAGUCCAGGGAGUGGCGAAAGUCACACAAACCGG

The series covers variants of B1. Briefly: reverse-splicing fitness (ratio to wild type); higher = more active; in vitro selection; Mg2+ level not given. The procedure, abridged: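 An in vitro group I ribozyme library with randomized positions was T7-transcribed and gel-purified. In triplicate, 10 pmol RNA in EPPS pH 7.5 was reacted with 50 pmoles of a 30-nt RNA substrate for 1 h at 37 °C across several added MgCl2 levels (1–48 mM), then stopped with EDTA. Products were reverse transcribed from a substrate-complementary primer, PCR-amplified and sequenced (HiSeq 4000). Fitness is a variant's read proportion after selection over that before, normalised to wild type.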
Turning to C82G A111C A120G C150U C169U, the reverse-splicing fitness was 0.00939. As for C82G A111C A120G A145U C150U C169A U176C, the figure is 0.0109; as for C82G A111C A120G A145U C150U C169A U176G, 0.006; as for C82G A111C A120G A145U C150U C169A U176A, 0.0109. The value for C82G A111C A120G C150G C169A was 0.00888; that for C82G A111C A120G C150G C169U was 0.00835.

In the case of C82G A111C A120G C150G C169G, the reverse-splicing fitness stood at 0.00781. As for C82G A111C A120U A145G C150U U176C, the figure is 0.0162; as for C82G A111C A120U A145G C150U U176A, 0.0115.

For C82G A111C A120U A145G C150U U176G, the reverse-splicing fitness came to 0.00399. The value for C82G A111C A120G A145U C150U C169U U176G was 0.00531; that for C82G A111C A120G A145U C150U C169U U176C was 0.0139; that for C82G A111C A120G A145U C150U C169U U176A was 0.0143.

For C82G A111C A120G A145U C150U C169G U176G, the reverse-splicing fitness came to 0.00519. The value for C82G A111C A120G A145U C150U C169G U176A was 0.0127. The value for C82G A111C A120G A145U C150U C169G U176C was 0.0134; that for C82G A111C A120U C150G C169A was 0.00763. The value for C82G A111C A120U C150G C169U was 0.00609; that for C82G A111C A120U C150G C169G was 0.00669; that for C82G A111C A120U C150A C169A U176G was 0.00289. Consider C82G A111C A120U C150A C169A U176C, for which the reverse-splicing fitness is 0.00453. As for C82G A111C A120U C150A C169A U176A, the figure is 0.00668; as for C82G A111C A120U A145C C150A C169G U176G, 0.00223. The value for C82G A111C A120U A145C C150A C169G U176A was 0.00319; that for C82G A111C A120U A145C C150A C169G U176C was 0.00286; that for C82G A111C A120U A145G C169U U176C was 0.00468. The value for C82G A111C A120U A145G C169U U176G was 0.0022; that for C82G A111C A120U A145G C169U U176A was 0.00525; that for C82G A111C A120U A145G was 0.0506. Turning to C82G A111C A120U A145U, the reverse-splicing fitness amounted to 0.0481.

Turning to C82G A111C A120U A145C, the reverse-splicing fitness came to 0.0432. The value for C82G A111C A120U A145C C150U C169U U176G was 0.00249; that for C82G A111C A120U A145C C150U C169U U176A was 0.00337; that for C82G A111C A120U A145C C150U C169U U176C was 0.00256.

Take C82G A111C A120U A145C C150G C169U U176A: the reverse-splicing fitness came to 0.00358. Turning to C82G A111C A120U A145C C150G C169U U176C, the reverse-splicing fitness stood at 0.00324. As for C82G A111C A120U A145C C150G C169U U176G, the figure is 0.00222; as for C82G A111C A120G A145U C169U U176G, 0.00395. The value for C82G A111C A120G A145U C169U U176C was 0.014.

As to C82G A111C A120G A145U C169U U176A, the reverse-splicing fitness is 0.0144.

For the variant C82G A111C A120U A145G C150U C169G U176A, the reverse-splicing fitness was 0.00573. Turning to C82G A111C A120U A145G C150U C169G U176G, the reverse-splicing fitness came to 0.00259. As to C82G A111C A120U A145G C150U C169G U176C, the reverse-splicing fitness stood at 0.00437.

Consider C82G A111C A120U C150A C169U, for which the reverse-splicing fitness turned out to be 0.00505. As for C82G A111C A120U C150A C169A, the figure is 0.00547.

With C82G A111C A120U C150A C169G, the reverse-splicing fitness turned out to be 0.0046.

For C82G A111C A120U A145U C150G C169A U176C, the reverse-splicing fitness stood at 0.00308. As for C82G A111C A120U A145U C150G C169A U176A, the figure is 0.0036; as for C82G A111C A120U A145U C150G C169A U176G, 0.00276.

With C82G A111C A120U A145U C169G U176G, the reverse-splicing fitness is 0.00162.

Take C82G A111C A120U A145U C169G U176A: the reverse-splicing fitness worked out at 0.00269. For C82G A111C A120U A145U C169G U176C, the reverse-splicing fitness turned out to be 0.00239.

On to C82G A111C A120U A145U C150U C169A, for which the reverse-splicing fitness was 0.00298. As for C82G A111C A120U A145U C150U C169G, the figure is 0.00403; as for C82G A111C A120U A145U C150U C169U, 0.00397. Regarding C82G A111C A120G C169A, the reverse-splicing fitness turned out to be 0.0107. As for C82G A111C A120G C169U, the reverse-splicing fitness is 0.00963. As for C82G A111C A120G C169G, the figure is 0.0132; as for C82G A111C A120U A145U C169G, 0.00373. Regarding C82G A111C A120U A145U C169A, the reverse-splicing fitness stood at 0.00231. The value for C82G A111C A120U A145U C169U was 0.00412. As for C82G A111C A120U A145G C169G U176G, the figure is 0.00194; as for C82G A111C A120U A145G C169G U176A, 0.00387. The value for C82G A111C A120U A145G C169G U176C was 0.00363; that for C82G A111C A120G C150G C169G U176G was 0.00467. As to C82G A111C A120G C150G C169G U176C, the reverse-splicing fitness was found to be 0.00508. The value for C82G A111C A120G C150G C169G U176A was 0.00677. As for C82G A111C A120U A145C C169U, the figure is 0.00341. The value for C82G A111C A120U A145C C169G was 0.00323; that for C82G A111C A120U A145C C169A was 0.00204; that for C82G A111C A120U was 0.0509. Regarding C82G A111C A120U A145G C169G, the reverse-splicing fitness came to 0.00473. As for C82G A111C A120U A145G C169U, the figure is 0.00527. For C82G A111C A120U A145G C169A, the reverse-splicing fitness came out at 0.00335. As for C82G A111C A120U A145U C150G U176A, the figure is 0.00411; as for C82G A111C A120U A145U C150G U176C, 0.0062. The value for C82G A111C A120U A145U C150G U176G was 0.00265; that for C82G A111C A120G C169A U176C was 0.0206; that for C82G A111C A120G C169A U176G was 0.00442.

In the case of C82G A111C A120G C169A U176A, the reverse-splicing fitness stood at 0.016. The value for C82G A111C A120G C150A C169A U176G was 0.00716; that for C82G A111C A120G C150A C169A U176A was 0.0179; that for C82G A111C A120G C150A C169A U176C was 0.0214.
